Experimental data published in paper PMC6572768, “THETA system allows one-step isolation of tagged proteins through temperature-dependent protein–peptide interaction” (Communications Biology, 2019).

T1: recombinant chicken cryptochrome 4, full-length, untagged (chicken)
T1 construct: chicken cryptochrome 4 (cCRY4); last residue Thr529; calculated molecular mass 61,063 Da; also called cCRY4; non-tagged cCRY4; source: budding yeast MaV203, overexpressed, in soluble extract
T1 chain: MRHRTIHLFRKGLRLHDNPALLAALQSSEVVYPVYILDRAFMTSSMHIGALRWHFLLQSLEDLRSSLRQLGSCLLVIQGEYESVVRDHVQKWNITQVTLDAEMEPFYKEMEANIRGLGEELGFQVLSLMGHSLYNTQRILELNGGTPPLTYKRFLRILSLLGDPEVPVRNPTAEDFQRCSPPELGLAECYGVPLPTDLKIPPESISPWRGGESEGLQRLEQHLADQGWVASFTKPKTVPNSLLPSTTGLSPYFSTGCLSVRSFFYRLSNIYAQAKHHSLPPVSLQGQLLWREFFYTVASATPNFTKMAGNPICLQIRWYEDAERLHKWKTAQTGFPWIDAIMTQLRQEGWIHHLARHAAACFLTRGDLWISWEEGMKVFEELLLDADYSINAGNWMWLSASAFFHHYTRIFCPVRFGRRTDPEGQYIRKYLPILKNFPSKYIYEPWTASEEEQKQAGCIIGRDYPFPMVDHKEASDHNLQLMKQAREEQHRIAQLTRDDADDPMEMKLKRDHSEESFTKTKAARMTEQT

T2: GST-cCRY4CCE (chicken)
T2 construct: chicken cryptochrome 4 (cCRY4) C-terminal region, Asp470-Thr529; also called cCRY4 C-terminal extension (CCE)
T2 chain: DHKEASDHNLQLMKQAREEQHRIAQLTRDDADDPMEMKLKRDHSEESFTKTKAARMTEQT


Tests used:
[1] = biological target: C13 monoclonal antibody (mouse); test: ELISA; indirect competitive ELISA at 4, 15, 26 and 37 °C; antibody mixed with serially diluted antigen until equilibrium, then 15 min on a well coated with GST-cCRY4CCE (1 μg/mL for C13 mAb); SM/TBS; affinity constants by fit to a model formula
[2] = biological target: T1, recombinant chicken cryptochrome 4, …; test: pull-down; renatured MBP-THETAL-His immobilised on Affi-Gel 15; crude extract mixed with the gel at 4 °C, washed, eluted by warming to 42 °C or 37 °C; details: one partner purified
GST-cCRY4CCE = biological target: T2, GST-cCRY4CCE; test: ELISA; MBP-C13scFv-His refolded at various pH, dialysed against PBS pH 7.4, titrated on cCRY4CCE; detected with anti-6xHis antibody; EC50 by the Rodbard model

Row | Binder | fold of the affinity constant at 4 °C over that at 37 °C [1] | binding result [2] | binding result (GST-cCRY4CCE)
1 | TKTKAARMTEQT [GST-CT9] | 480 times | – | –
2 | MBP-C13scFv-His (scFv, V domains shown, C13 variable light (VL); (GGGGS)3 linker; C13 variable heavy (VH); Order VL-linker-VH in pET-22b(+); also called MBP-THETAL-His; THETAL; not shown: MBP, N-terminal, kept; His6, C-terminal, kept) VH: EVKLEESGGGLVQPGGSLRLSCATSGFTFTDYYMSWVRQPPGKALEWLGFIRNKANVYTTEYSASVKGRFTISRDNSQSILYLQMNTLRAEDSATYYCARDGGYDDGGYAMDYWGQGTSVTVSS VL: DIVMTQSHKFMSTSVGDRVSITCKASQDVGTAVAWYQQKPGQSPKLLIYWASTRHTGVPDRFTGSGSGTDFTLTISNVQSEDLADYFCQQYSSYPYTFGGGTKLEIK | – | binds | binds
